Experimental data from patent US20150037339A1 (Regeneron, published 2015).

Columns and labels:
[1] = molecular target: T1, Activin A (human, UniProt P08476 311-426); assay: SPR, captured mAb, 37C; no dissociation observed, kd fixed
T1 construct: Homodimer of two βA subunits; bought from R&D Systems (#338-AC); also called inhibin-βA dimer; human Activin A
T1 sequence: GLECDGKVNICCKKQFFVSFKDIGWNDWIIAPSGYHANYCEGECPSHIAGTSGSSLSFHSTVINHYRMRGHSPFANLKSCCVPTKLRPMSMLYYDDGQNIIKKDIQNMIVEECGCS
How it was run: (§1)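 Reported half-lives follow ln2/(60*kd) in minutes, with KD taken as kd/ka. Both rest on fits to binding data from 240 s of association and 600 s of buffer dissociation.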

[2] = molecular target: T1, Activin A; assay: Octet cross-competition; binder on anti-hFc tip; 50 nM hActivin A pre-bound with 1 uM H4H10432P2 (col 7); white box
Procedure: (§2) No. 8,309,082) and Control 3 (MAB3381, available from R&D Systems, Inc., Minneapolis, Minn.) were also included in the assays. All assays were performed at 25° C. with a microtiter plate shaking rate of 1000 rpm in Octet HBST buffer (0.01 M HEPES pH7.4, 0.15M NaCl, 3 mM EDTA, 0.05% v/v Surfactant P20, 0.1 mg/mL BSA) according to manufacturer's instructions (ForteBio Corp., Menlo Park, Calif.). […] Any remaining anti-hFc binding sites on the tips were blocked by incubating the tips in a 50 ug/mL solution of irrelevant antibody for 5 minutes.

[3] = molecular target: T1, Activin A; assay: Octet cross-competition; binder on anti-hFc tip; 50 nM hActivin A pre-bound with 1 uM H4H10423P (col 4); black box
Procedure: as §2

[4] = molecular target: T1, Activin A; assay: Octet cross-competition; binder on anti-hFc tip; 50 nM hActivin A pre-bound with 1 uM H4H10429P (col 6); white box
Procedure: as §2

[5] = molecular target: T2, Activin B (human, UniProt P09529 293-407); assay: SPR, captured mAb, 25C
T2 construct: Homodimer of two βB subunits; R&D Systems #659-AB
T2 chain: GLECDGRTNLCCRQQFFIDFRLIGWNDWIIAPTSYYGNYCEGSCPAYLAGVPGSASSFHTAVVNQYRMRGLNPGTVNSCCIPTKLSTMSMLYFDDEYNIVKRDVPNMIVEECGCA
How it was run: as §1

[6] = molecular target: T1, Activin A; assay: SPR, captured mAb, 25C
How it was run: as §1

[7] = molecular target: T1, Activin A; assay: Octet cross-competition; binder on anti-hFc tip; 50 nM hActivin A pre-bound with 1 uM H4H10430P (col 5); white box
Procedure: as §2

[8] = molecular target: T1, Activin A; assay: Octet cross-competition; binder on anti-hFc tip; 50 nM hActivin A pre-bound with 1 uM Control 1 (col 10); white box
Procedure: as §2

[9] = molecular target: T1, Activin A; assay: Octet cross-competition; binder on anti-hFc tip; 50 nM hActivin A pre-bound with 1 uM H4H10446P2 (col 1); black box
Procedure: as §2

[10] = molecular target: T1, Activin A; assay: Octet cross-competition; binder on anti-hFc tip; 50 nM hActivin A pre-bound with 1 uM H4H10440P2 (col 9); white box
Procedure: as §2

[11] = molecular target: T1, Activin A; assay: SPR, captured mAb, 25C; no dissociation observed, kd fixed
How it was run: as §1

[12] = molecular target: T1, Activin A; assay: Octet cross-competition; binder on anti-hFc tip; 50 nM hActivin A mixed with 1 uM Isotype control 12 (-) (col 12); dark grey box
Procedure: as §2

[13] = molecular target: T1, Activin A; assay: Octet cross-competition; binder on anti-hFc tip; 50 nM hActivin A pre-bound with 1 uM H4H10468P2 (col 2); black box
Procedure: as §2

[14] = molecular target: T1, Activin A; assay: Octet cross-competition; binder on anti-hFc tip; 50 nM hActivin A mixed with 1 uM Isotype control 13 (-) (col 13); dark grey box
Procedure: as §2

[15] = molecular target: T1, Activin A; assay: Octet cross-competition; binder on anti-hFc tip; 50 nM hActivin A pre-bound with 1 uM H4H10436P2 (col 8); white box
Procedure: as §2

[16] = molecular target: T2, Activin B; assay: SPR, captured mAb, 37C
How it was run: as §1

[17] = molecular target: T1, Activin A; assay: SPR, captured mAb, 37C
How it was run: as §1

[18] = molecular target: T1, Activin A; assay: Octet cross-competition; binder on anti-hFc tip; 50 nM hActivin A pre-bound with 1 uM Control 3 (col 11); white box
Procedure: as §2

[19] = molecular target: T1, Activin A; assay: Octet cross-competition; binder on anti-hFc tip; 50 nM hActivin A pre-bound with 1 uM H4H10442P2 (col 3); black box
Procedure: as §2

[20] = molecular target: T2, Activin B; assay: SPR, captured mAb, 25C; 25 C
Procedure: Antibody-antigen association was monitored for 240 seconds while dissociation in buffer was monitored for 600 seconds. Kinetic association and dissociation rate constants were determined by processing and fitting the data using Scrubber software version 2.0c. Binding equilibrium dissociation constants (KD) and dissociative half-lives (t_{1/2}) were then calculated from the kinetic rate constants as: KD (M)=kd/kₐ and t_{1/2} (min)=[ln 2/(60*kd)]. (NB=no binding observed under the conditions used; NT=not tested).

[21] = molecular target: T1, Activin A; assay: Octet cross-competition; binder on anti-hFc tip; 50 nM hActivin A pre-bound with 1 uM H4H10430P (col 5); black box
Procedure: as §2

Binder | koff [1] | binding response [2] | binding response [3] | binding response [4] | 50 nM Ag Bound (RU) [5] | Activin A-20 nM (RU) [6] | Kd [6] | kon [6] | t1/2 [6] | binding response [7] | binding response [8] | binding response [10] | binding response [12] | binding response [14] | binding response [15] | Activin A-20 nM (RU) [17] | Kd [17] | kon [17] | t1/2 [17] | binding response [18] | other results
H4H10442P2 (antibody, human IgG4, V domains shown) VH: QVQLQESGPGLVKPSETLSITCTVSGGSFSSHFWTWIRQPPGKGLEWIGYLHYSGGTSYNPSLKSRVIISVDTSKNQFSLKLNSVTAADTAVYYCARARSGITFGGLIVPGSFDIWGQGTMVTVSS VL: not shown | ≤ 5e-05 s⁻¹ | 1.59 | 0.27 | 1.55 | 3.4 RU | 31.3 RU | ≤ 4.55 pM | 1.1e+07 M⁻¹ s⁻¹ | ≥ 3.85 h | 1.33 | 0.99 | 1.5 | 0.46 | 0.26 | 1.44 | 40.5 RU | ≤ 3.48 pM | 1.44e+07 M⁻¹ s⁻¹ | ≥ 3.85 h | 0.99 | binding result [5]: no binding (tested: 50 nM); binding response [9]: 0.35; koff [11]: ≤ 5e-05 s⁻¹; binding response [13]: 0.36; 50 nM Ag Bound (RU) [16]: 4.4 RU
H4H10468P2 (antibody, human IgG4, V domains shown) VH: QVQLQESGPGLVKPSETLSLTCTVSGGSFSSHFWSWIRQPPGKGLEWIGYIYYSGGTHYNPSLESRVTISVDTSKNQFSLKLNSVTAADTAVYYCARARSGITFGGLIVPGSFDIWGQGTMVTVSS VL: not shown | ≤ 5e-05 s⁻¹ | 1.73 | 0.41 | 1.68 | 6.2 RU | 21.7 RU | ≤ 6.36 pM | 7.86e+06 M⁻¹ s⁻¹ | ≥ 3.85 h | 1.41 | 1.08 | 1.7 | 0.41 | 0.28 | 1.66 | 24.5 RU | ≤ 4.1 pM | 1.22e+07 M⁻¹ s⁻¹ | ≥ 3.85 h | 0.79 | binding response [9]: 0.33; koff [11]: ≤ 5e-05 s⁻¹; binding response [19]: 0.4; 50 nM Ag Bound (RU) [16]: 3.4 RU; binding result [16]: no binding (tested: 50 nM)
H4H10446P2 (antibody, human IgG4, V domains shown, also called H4H20446) VH: QVQLQESGPGLVKPSETLSLTCTVSGGSFSSHFWSWIRQPPGKGLEWIGYILYTGGTSFNPSLKSRVSMSVGTSKNQFSLKLSSVTAADTAVYYCARARSGITFTGIIVPGSFDIWGQGTMVTVSS VL: not shown | ≤ 5e-05 s⁻¹ | 1.68 | 0.33 | 1.61 | 3.6 RU | 24.1 RU | ≤ 3.88 pM | 1.29e+07 M⁻¹ s⁻¹ | ≥ 3.85 h | 1.39 | 0.83 | 1.67 | 0.47 | 0.26 | 1.61 | 31.5 RU | ≤ 3.25 pM | 1.54e+07 M⁻¹ s⁻¹ | ≥ 3.85 h | 1.21 | koff [11]: ≤ 5e-05 s⁻¹; binding response [19]: 0.39; binding response [13]: 0.36; 50 nM Ag Bound (RU) [16]: 3.8 RU; binding result [16]: no binding (tested: 50 nM)
H4H10423P (antibody, human IgG4, V domains shown) VH: QVQLQQSGPGLLKPSQTLSLTCAISGDSVSSNSAAWSWIRQSPSRGLEWLGRTYYRANWFNDYALSVKSRITINPVTSTNHFSLQLHSVTPEDTAVYYCAREGALGYYFDSWGQGTLVTVSS VL: not shown | ≤ 5e-05 s⁻¹ | 1.32 |  | 1.48 |  | 19.4 RU | 32.6 pM | 3.33e+06 M⁻¹ s⁻¹ | 1.77 h |  | 0.6 | 1.31 | 0.39 | 0.26 | 1.49 | 25.2 RU | ≤ 12.6 pM | 3.95e+06 M⁻¹ s⁻¹ | ≥ 3.85 h | 0.79 | Kd [20]: 61800 pM; koff [20]: 0.0302 s⁻¹; kon [20]: 489000 M⁻¹ s⁻¹; t1/2 [20]: 24 s; koff [6]: 0.000109 s⁻¹; binding response [9]: 0.51; binding response [21]: 0.28; binding response [19]: 0.59; binding response [13]: 0.58
